Columns and labels:
HLA-A*2402 [1] = biological target: HLA-A*2402 (human); assay: iTopia affinity;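 also: peptide binding to HLA-A*2402 measured in iTopia kit format across eight serial peptide dilutions, ED50 derived from the resulting titration curve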
HLA-A*2402 [2] = biological target: HLA-A*2402 (human); assay: iTopia off-rate
HLA-A*2402 [3] = biological target: HLA-A*2402 (human); assay: iTopia net score;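 also: iScore from iTopia software combining peptide binding, affinity over a dilution series and off-rate after warming to body temperature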
HLA-A*0201 [4] = biological target: T1, HLA-A*0201 (human); assay: iTopia binding;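 also: each peptide tested for binding to HLA-A2 molecules immobilized on plates, using a commercial screening kit run per its supplied protocol and reagents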
T1 construct: also called HLA-A2.1; HLA A2.1

HLA-A*0201 [5] = biological target: T1, HLA-A*0201; assay: iTopia affinity;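 also: peptide affinity for plate-bound HLA-A2 molecules (iTopia system), with ED50 derived from an eight-point serial peptide dilution series run under binding assay conditions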
HLA-A*0201 [6] = biological target: T1, HLA-A*0201; assay: iTopia off-rate;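 also: Half-life of peptide complexes with plate-bound HLA-A2, peptides loaded 18 h at 21 C, washed, then held at 37 C over several time points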
HLA-A*0201 [7] = biological target: T1, HLA-A*0201; assay: iTopia net score;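 also: combined score from peptide binding, ED₅₀ and half-life of peptide complexes with plate-bound HLA-A2 molecules, computed by a proprietary formula in iTopia software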

Binder	ED50 (HLA-A*2402 [1]) [µM]	t1/2 (HLA-A*2402 [2])	iScore (HLA-A*2402 [3])	binding vs positive control (HLA-A*0201 [4]) [%]	ED50 (HLA-A*0201 [5]) [µM]	t1/2 (HLA-A*0201 [6])	iScore (HLA-A*0201 [7])
QHFVYDHVF [cdr2 169-177 QHFVYDHVF]	3.1	0.21	0.097				
QHAKVYEQL [cdr2 79-87 QHAKVYEQL]	10	0.25	0.058				
MYTTNQEQL [cdr2 52-60 MYTTNQEQL]	0.54	1.46	0.441				
QLAAELGKT [cdr2 29-37 QLAAELGKT]				> 30	20	1.4	0.15
LKSSGQGRR [cdr2 136-144 LKSSGQGRR]				> 30	16	2.38	0.176
KVYEQLDVT [cdr2 82-90 KVYEQLDVT]				> 30	8	1.3	0.139
HLQSQVEEL [cdr2 128-136 HLQSQVEEL]				> 30	10	7.7	0.323
YLTKQVELL [cdr2 65-73 YLTKQVELL]	1.9	0.22	0.107	> 30	2	8.1	0.645
KILSLTETI [cdr2 111-119 KILSLTETI]	1.5	0.82	0.261	> 30	7	10.5	0.512
VFAEKITSL [cdr2 176-184 VFAEKITSL]	0.26	0.78	0.446	> 30	5	0.4	0.106
NIDHLQSQV [cdr2 125-133 NIDHLQSQV]				> 30	6	1.3	0.166

Results, then the binder that gave them:

ED50 (HLA-A*2402 [1]) [µM]	t1/2 (HLA-A*2402 [2])	iScore (HLA-A*2402 [3])	binding vs positive control (HLA-A*0201 [4]) [%]	ED50 (HLA-A*0201 [5]) [µM]	t1/2 (HLA-A*0201 [6])	iScore (HLA-A*0201 [7])	Binder
			> 30	6	13.9	0.803	SLLEEMFLT [cdr2 289-297 SLLEEMFLT]
			> 30	5	5.1	0.235	MLQAQLSLE [cdr2 204-212 MLQAQLSLE]
			> 30	10	2.4	0.154	LVPDSLYVP [cdr2 274-282 LVPDSLYVP]
8.8	1.02	0.092					VEKLVPDSL [cdr2 271-279 VEKLVPDSL]
			> 30	4	1.9	0.244	LASVNPEPV [cdr2 405-413 LASVNPEPV]
			> 30	8.1	3.42	0.174	QAQLSLERQ [cdr2 206-214 QAQLSLERQ]
			> 30	6.3	1.27	0.166	TMEEEYGLV [cdr2 218-226 TMEEEYGLV]
			> 30	30	5.44	0.178	QSLLEEMFL [cdr2 288-296 QSLLEEMFL]
0.49	1.25	0.496					PFKEPSQSL [cdr2 282-290 PFKEPSQSL]
0.7	0.25	0.117	> 30	0.8	9.8	0.811	TMLQAQLSL [cdr2 203-211 TMLQAQLSL]
1.5	1.6	0.357					YKALFKEIF [cdr2 422-430 YKALFKEIF]
			> 30	10	6.4	0.292	GVNAQSEPV [cdr2 391-399 GVNAQSEPV]
			> 30	1	0.5	0.187	ASGWELASV [cdr2 400-408 ASGWELASV]

Source: patent US20090208538A1 (ROCKEFELLER UNIVERSITY, published 2009)
